Measured values from the supplement of paper PMC9732359.
± gives the uncertainty stated by the source.

Experiment: protein stability index of a GFP-peptide fusion (yeast GPS) (PSI 1-4); higher = more stable; sorted into four equal gates, so the index is relative within each strain
How it was run: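 Sequencing reads from sorted gates were used to score each peptide. The library consisted of tiled 17-residue yeast protein peptides fused downstream of GFP on a Cherry-expressing plasmid, pooled and carried in yeast. Mid-log cultures in leucine-free medium were split into four equal gates by GFP/Cherry ratio, and each gate's plasmids were PCR-amplified and Illumina-sequenced. The protein stability index adds up, over all gates, the read frequency multiplied by the gate number.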

Row | Sequence | protein stability index (doa10∆) | protein stability index (pdr5∆) | protein stability index (san1∆) | protein stability index (ubr1∆)
1 | GYILEGEELAFYLRRLT [RPS8A] | 1.26 ± 0.078 | 1.41 ± 0.07 | 1.24 ± 0.17 | 1.31 ± 0.25
2 | SLENNIREFPEYFAAQA [RPL10] | 2.3 ± 0.065 | 2.66 ± 0.068 | 2.75 ± 0.05 | 2.52 ± 0.062
3 | RETNDDIWRVAGKFELL [SNF2] | 2.54 ± 0.067 | 2.26 ± 0.065 | 2.43 ± 0.076 | 2.8 ± 0.066
4 | KRKCGHTNQLRPKKKLK [RPL40A] | 2.76 ± 0.038 | 2.84 ± 0.036 | 2.942 ± 0.028 | 2.994 ± 0.029
5 | KLRGDLREAPADYWTHA [SNF6] |  | 3 ± 0.27 |  | 2.99 ± 0.12
6 | GKHSQEQNSSSAKPSQI [SIR4] | 2.97 ± 0.067 | 3.24 ± 0.072 | 3.02 ± 0.06 | 3.24 ± 0.052
7 | NESSLALEFVSLLLSSV [SRB4] | 1.18 ± 0.045 | 1.33 ± 0.048 | 1.53 ± 0.09 | 1.6 ± 0.05
8 | NDYLEKHSVTEYIFEAH [CDC53] |  | 2.79 ± 0.12 | 3.12 ± 0.094 | 3.17 ± 0.1
9 | SLQEDVSFDFNGVPGQA [MED8] | 2.41 ± 0.06 | 2.97 ± 0.057 | 2.64 ± 0.086 | 3 ± 0.053
10 | HPVSLISFAIYSALNST [RRP42] | 1.53 ± 0.051 | 1.55 ± 0.058 | 1.62 ± 0.089 | 1.84 ± 0.045
11 | STGPTGAVSLNPSITRL [RRP4] | 2.92 ± 0.057 | 3.05 ± 0.074 | 2.88 ± 0.042 | 3.06 ± 0.05
12 | TDGADENVQIGEDFMEV [SRB4] | 2.66 ± 0.12 | 3.35 ± 0.17 |  | 3.1 ± 0.19
13 | VIFKIRDRTSGQKLLAI [SRB4] |  | 3.17 ± 0.2 | 3.5 ± 0.11 | 3.33 ± 0.16
14 | SDSETNHKSKDNNNGDD [SKP1] | 2.9 ± 0.054 | 3.17 ± 0.051 | 3.11 ± 0.04 | 3.15 ± 0.045
15 | RDDALVVETITSLLNKV [RRP42] | 2.88 ± 0.071 | 2.83 ± 0.048 | 3.1 ± 0.054 | 3.06 ± 0.045
16 | RARKDRMRVSVLEKYEV [SSN3] | 2.02 ± 0.11 | 2.65 ± 0.089 | 2.19 ± 0.13 | 1.97 ± 0.039
17 | AMIDAGALEEITKDHKV [FAS2] |  | 2.99 ± 0.14 |  | 2.19 ± 0.2
18 | HPFIPLLKEKPNALKPL [RRP6] | 2.54 ± 0.065 | 2.7 ± 0.067 | 2.94 ± 0.076 | 2.71 ± 0.053
19 | TFEIPQAHEIVIPSYSK [SWI3] | 2.43 ± 0.095 | 2.37 ± 0.07 | 2.39 ± 0.065 | 2.36 ± 0.064
20 | DMKEYDSDKGSKLNELK [SMC2] | 3.25 ± 0.14 | 3.28 ± 0.1 | 3.27 ± 0.072 | 3.29 ± 0.14
21 | SDMENDNLLLNLEQINE [REC8] | 2.76 ± 0.056 | 2.75 ± 0.048 | 2.72 ± 0.06 | 2.86 ± 0.048
22 | VVGRTTRSNPPFKRKML [REC8] | 2.59 ± 0.06 | 2.77 ± 0.059 | 2.71 ± 0.055 | 2.75 ± 0.054
23 | AASLGDMVMATVKKGKP [RPL23A] | 2.6 ± 0.1 | 1.96 ± 0.087 | 3.5 ± 0.099 | 2.91 ± 0.078
24 | LVALSNEPAARLGSEAD [FAS2] | 3.44 ± 0.082 | 3.37 ± 0.073 | 3.45 ± 0.054 | 3.32 ± 0.092
25 | LYDLRASYAKIEIKISD [SNU114] | 2.34 ± 0.11 | 2.72 ± 0.084 | 2.22 ± 0.12 | 2.13 ± 0.17
26 | HNSVKRYQIMLPEQLKS [SNM1] | 1.16 ± 0.042 | 1.59 ± 0.052 | 1.44 ± 0.1 | 1.74 ± 0.041
27 | MIIDEGHRMKNAQSKLS [SNF2] | 1.45 ± 0.072 | 1.98 ± 0.061 | 1.67 ± 0.089 | 1.93 ± 0.089

Row | Sequence | protein stability index (doa10∆) | protein stability index (pdr5∆) | protein stability index (san1∆) | protein stability index (ubr1∆)
28 | IQIFRAHLWQKIHESIV [PRP8] | 2.4 ± 0.098 | 2.52 ± 0.09 | 2.59 ± 0.073 | 2.47 ± 0.074
29 | HIRKASSKKSKRLDKVG [LRP1] | 3.21 ± 0.087 | 2.78 ± 0.1 | 2.97 ± 0.061 | 2.95 ± 0.066
30 | LIASHYGVSFFTIQSFV [BRR2] | 1.92 ± 0.043 | 1.89 ± 0.039 | 1.48 ± 0.063 | 1.81 ± 0.051
31 | ENFSNGISLVMEIVANA [MED1] | 2.12 ± 0.067 | 2.53 ± 0.054 | 2.5 ± 0.057 | 2.51 ± 0.034
32 | LSEAWRCWKANIPWDVP [PRP8] | 2.15 ± 0.11 | 2.16 ± 0.098 | 1.1 ± 0.15 | 3.42 ± 0.15
33 | VPKLESSRTKFWSFLDS [YJL039C/NUP192] | 1.61 ± 0.29 |  | 1.61 ± 0.13 | 1.44 ± 0.096
34 | EAESQWYIEKVIRIPMQ [CSI1] |  | 2.96 ± 0.24 |  | 2.71 ± 0.24
35 | RQPVEGRSRDGGLRFGE [RPB2] | 2.86 ± 0.29 |  | 2.81 ± 0.17 | 
36 | VLSLGRPNLPTHNFKLS [RGR1] | 3.04 ± 0.17 |  |  | 
37 | NVNMTVNTMGTGGQTID [MED6] | 3.23 ± 0.3 | 3.44 ± 0.12 | 3.06 ± 0.14 | 3.37 ± 0.29
38 | SLSEFARRRQPTDQNNQ [SNF2] | 2.89 ± 0.11 | 3.12 ± 0.13 | 3.1 ± 0.067 | 2.87 ± 0.1
39 | DLKASQRVCLRSDSYML [RPT6] | 2.92 ± 0.1 | 3.08 ± 0.077 | 2.92 ± 0.075 | 2.82 ± 0.051
40 | PLKFKLGPLSYQNMAFI [YJR042W/NUP85] | 2.42 ± 0.064 | 2.55 ± 0.06 | 2.58 ± 0.062 | 2.6 ± 0.049
41 | SLTLSFIRHVAKLNYKN [ECM29] | 2.7 ± 0.092 | 2.87 ± 0.088 | 2.91 ± 0.054 | 2.92 ± 0.048
42 | ASRDKTLISWKLTGDDQ [ASC1] | 1.32 ± 0.14 | 1.68 ± 0.13 |  | 1.61 ± 0.094
43 | YLTGGQQPTASDNIASL [SMD1] | 3 ± 0.21 | 2.57 ± 0.18 | 3.04 ± 0.099 | 2.61 ± 0.18
44 | QEETVVEQTAEVTIEDA [RPS12] | 3.36 ± 0.12 | 3.38 ± 0.13 | 3.19 ± 0.048 | 3.33 ± 0.056
45 | ISLYLLNLLSQNNTTKF [RPN12] | 1.53 ± 0.044 | 1.72 ± 0.054 | 1.32 ± 0.073 | 1.36 ± 0.039
46 | EFIFGTYNMIDAAAEKR [ARP7] | 2.99 ± 0.057 | 3.02 ± 0.057 | 3.08 ± 0.044 | 3.12 ± 0.04
47 | PLEKITDAYLDQYLWYE [PRP8] | 3.19 ± 0.13 | 3.36 ± 0.18 | 3.03 ± 0.18 | 3.18 ± 0.12
48 | SHAVEFFMSERSSRLHI [YML103C/NUP188] | 2.5 ± 0.067 | 2.73 ± 0.079 | 2.75 ± 0.087 | 2.4 ± 0.049
49 | ACDPSEIEPILMEIHNI [RGR1] | 2.82 ± 0.13 | 2.74 ± 0.1 | 3.16 ± 0.08 | 2.92 ± 0.067
50 | FLQDKVQIKDVNDRYQI [CSI1] | 3.28 ± 0.18 | 1.58 ± 0.12 | 1.05 ± 0.17 | 3.37 ± 0.21
51 | VDLEEVMDTIQEQITLY [SSN8] | 3.33 ± 0.13 | 3.18 ± 0.087 | 3.16 ± 0.079 | 3.32 ± 0.08
52 | ETGNFSWASEGISKKTR [RPS8A] | 3.15 ± 0.037 | 3.267 ± 0.028 | 3.206 ± 0.028 | 3.228 ± 0.025
53 | MASTAVMMDVDSSGVND [RPN3] | 3.17 ± 0.19 | 3.51 ± 0.2 |  | 3.26 ± 0.091
54 | RGRSVMKESVVEINSSE [ESC2] | 3.15 ± 0.11 | 2.83 ± 0.14 | 3.09 ± 0.17 | 2.98 ± 0.1
